The target of the assay is camel-derived heavy-chain antibodies on camel PBMC cells. Put plainly: flow cytometry, PE-labeled antibody on PBMC of a non-immunized camel. (A flow cytometer gives signals particle by particle.)

B1: R166.G8 (antibody, V domains shown)
VH: LEQSGGGAEGGLVKPGGSLELCCKASGFSLSNIYWICWVRQAPGTGLEWIGCINSGSNSYTYYANWVDGRFTLSRDIDQSTGCLQLNSLTAADTAMYYCARDRDAADTSDWSLNFWGQGTLVTVSS
VL: QVLTQTPSSVSAAVGGTVTISCQSSDSVNNDNWLAWYQQKPGQPPKLLIYQASKLASGVPSRFSGSGSGTQFTLTISGVQCDDAANYYCQGTGYSSTWYVAFGGGTEVVVKG
Regarding B1, the proportion of PBMC cells specific for heavy-chain antibodies was found to be 17.2%.

B2: R166.C5 (antibody, V domains shown)
VH: QSVEESGGRLVTPGTPLTLTCTVSGFSLRNFAMSWVRQAPGKGLEWIGIIYSGGTRDYATWAKGRFTISKTSTTVDLKMTSPTTEDTATYFCARDRSPDYSAAFLLWGQGTLVTVSS
VL: IVMTQTPSSKSVPVGDTVTINCQASESVYSNNHLAWFQQKPGQPPKLLIYSASTLESGVPSRFKGSGSGTQFTLTISGVQCDDAATYYCAGYKSSDTDGTSFGGGTEVVVKG
B2 returned a proportion of PBMC cells specific for heavy-chain antibodies of 22.8%.

B3: R166.H8 (antibody, V domains shown)
VH: QSVEESGGRLVTPGTPLTLTCTVSGFSLSSFAMSWVRQAPGKGLEWIGIIYATGGTRDYATWAAGRFTISKTSTTVGLKMTSPTTEDTATYFCARDRSPDYSAAFNLWGQGTLVTVSS
VL: IVMTQTPSSKSVPVGDTVTINCQASESVYSNNHLAWFQQKPGQPPKLLIYSASTLESGVPSRFKGSGSGTQFTLTISGVQCDDAATYYCAGYKSSDTDGTSFGGGTEVVVKG
In turn, B3 showed a proportion of PBMC cells specific for heavy-chain antibodies of 23.6%.

B4: R166.E7 (antibody, V domains shown)
VH: QSVEESGGRLVTPGTPLTLTCTVSGFSLSSFAMSWVRQAPGKGLEWIGIIYTGGTRDYATWAKGRFTISKTSTTVDLKMTSPTTEDTATYFCARDRSPDYSAAFNLWGQGTLVTVSS
VL: IVMTQTPSSKSVPVGDTVTINCQASESVYSNNHLAWFQQKPGQPPKLLIYSASTLESGVPSRFKGSGSGTQFTLTISGVQCDDAATYYCAGYKSSDTDGTSFGGGTEVVVKG
The molecule B4 yielded a proportion of PBMC cells specific for heavy-chain antibodies of 23.3%.

B5: R166.H9 (antibody, V domains shown)
VH: QSLEESGGRLVTPGTPLTLTCTASGFSLNNYNMIWVRQAPGEGLEWIGMIGDGDDAAWYASWAKGRFTISKTSTTVDLEVTSLTTEDTAIYFCARYLSFTRLDLWGQGTLVTVSS
VL: AVLTQTPSPVSAAVGGTVTINCQSSQSVYHNNWLAWYQQKPGQPPKLLIYGAATLASGVPSRFKGSGSGTQFTFTITDVQCDDVGTYYCAGVYNDDSENAFGGGTEVVVKG
For B5, the proportion of PBMC cells specific for heavy-chain antibodies was determined as 24.2%.

For the origin of these results see patent publication US20220281997A1.
